Measured values published in PMC7884711, “Identification of efficient prokaryotic cell-penetrating peptides with applications in bacterial biotechnology” (Communications Biology, 2021).
Where no end group is shown, it is not given here.

Experiments:
[1] = tested on: E. coli DH5α cells; test: Penetration efficiency of TAMRA-labeled CPPs, electroporation-based method, flow cytometry; type: cell-based, Escherichia coli; conditions: electrocompetent E. coli DH5α, 5 μg TAMRA-CPP, electroporation 1.8 kV; for Cell penetration efficiency (TAMRA fluorescence), Electrooration - Tris buffer: 20 mM Tris-HCl pH 7.5, 1 h; for Cell penetration efficiency (TAMRA fluorescence), Electrooration - DW: distilled water, 1 h
Source text: (§1) (Fig. 2a). […] First, we prepared electrocompetent and chemically competent cells.

[2] = tested on: E. coli DH5α cells; test: Penetration efficiency of TAMRA-labeled CPPs, chemical (CaCl2) treatment method, flow cytometry; type: cell-based, Escherichia coli; conditions: for Cell penetration efficiency (TAMRA fluorescence), Chemical (CaCl2) method - Tris buffer / Cell penetration efficiency (TAMRA fluorescence), Chemical (CaCl2) method - DW: 50 mM CaCl2-treated E. coli DH5α, 5 μg TAMRA-CPP; for Cell penetration efficiency (TAMRA fluorescence), Chemical (CaCl2) method - Tris buffer: 20 mM Tris-Cl pH 7.5, 1 h; for Cell penetration efficiency (TAMRA fluorescence), Chemical (CaCl2) method - DW: 5 × 10^7 cells/50 μL, distilled water, 1 h; for Penetration efficiency (TAMRA FI): TAMRA fluorescence intensity in E. coli, library screen of 98 CPPs
Source text: as §1

[3] = tested on: E. coli DH5α cells; test: Inhibition of bacterial cell growth by CPPs (Max OD600 relative to control); type: cell-based, Escherichia coli; conditions: for Max OD (%) (Figure 3f): E. coli DH5α diluted 1/1000 in LB, 5 μg TAMRA-CPP (0.1 μg/μL), OD600 monitored 18 h, max OD of treated cells / max OD of control cells; for Growth rate (%): E. coli growth with CPP, relative to control; for Anti-bacterial activity: class (Cytotoxic / Safe), cutoff of 50%
Protocol: E. coli DH5α cells were grown until OD600 = 1 at 37 °C with shaking at 200 rpm. […] Then, cell growth (OD600) was monitored for 18 h by using the Synergy^TM H1 hybrid multi-mode microplate reader (BioTek, Vermont, USA). As a control, we used E. coli cells that were not treated with CPPs.

[4] = tested on: E. coli DH5α cells; test: Penetration efficiency of TAMRA-labeled CPPs, non-treated cells (control method), flow cytometry; conditions: 5 μg TAMRA-labeled CPP (0.1 μg/μL), 1 h, PBS washes
Protocol: For the evaluation and optimization of the electroporation-based method, five efficient CPPs were selected from the previous reports[45],[46] […] The CPP were labeled with TAMRA to trace their penetration into the cytoplasm. First, we prepared electrocompetent and chemically competent cells[46]. As a negative control, we also prepared non-treated cells. After treating the five TAMRA-labeled CPP peptides, either distilled water or 20 mM Tris-Cl (pH = 7.5) was added as a buffer to the E. coli–CPP mixture and incubated at 37 °C for 1 h. After washing the cells, their fluorescence intensities were measured by flow cytometry to quantify CPP delivery efficiency.
Prepared cells at a density of 5 × 10^7 cells/50 μL were treated with 5 μg of TAMRA-labeled CPPs (0.1 μg/μL) and incubated for 1 h at room temperature. After incubation, the cells were washed with 1 × PBS and centrifuged at 7000 rpm for 10 min three times to remove extracellular CPPs.
Then, the cells were washed with 1 × PBS and centrifuged at 7000 rpm for 10 min three times. The fluorescence intensity of the CPPs in E. coli cells was quantitatively measured using a Guava EasyCyte flow cytometer (Millipore, Darmstadt, Germany) with an excitation wavelength of 547 nm and an emission wavelength of 580 nm.

[5] = tested on: E. coli carrying target plasmid with I-SceI recognition site; test: Plasmid removal assay using CPP-conjugated I-SceI; type: cell-based, Escherichia coli
Source text: To investigate the applicability of CPPs in plasmid removal using a CPP-conjugated I-SceI restriction enzyme, we constructed three different target plasmids containing a different replication origin: a pSC101 origin (low-copy number), ColE1 origin (mid-copy number), and RSF1030 origin (high-copy number). Then, an I-SceI recognition site was inserted into the target plasmids. In addition, for the selection of plasmid-containing cells and counterselection of plasmid-free cells, the tetA gene (tetracycline resistance gene) was introduced into the target plasmids. The selection and counterselection were conducted by using tetracycline and NiCl2, respectively.
For the plasmid removal experiment, three E. coli strains carrying a target plasmid with a different replication origin were prepared. The plasmids contained an I-SceI restriction site and a replication origin (pSC101, ColE1, or RSF1030). […] Then, the buffer was replaced with 1 × CutSmart buffer, because I-SceI requires the Mg^2+ included in the CutSmart buffer[64] as a cofactor. The cells were further incubated at 37 °C for 2 h and then spread on LB agar plates containing 2 mM NiCl2. The colonies grown on NiCl2-containing plates were transferred to an LB agar plate and a tetracycline-containing LB agar plate in order to confirm whether the plasmids were completely removed from the cells.

Molecule	Cell penetration efficiency (TAMRA fluorescence), Electrooration - Tris buffer ([1]; replicate 1)	Cell penetration efficiency (TAMRA fluorescence), Electrooration - Tris buffer ([1]; replicate 2)	Cell penetration efficiency (TAMRA fluorescence), Electrooration - Tris buffer ([1]; replicate 3)	Cell penetration efficiency (TAMRA fluorescence), Electrooration - DW ([1]; replicate 1)	Cell penetration efficiency (TAMRA fluorescence), Electrooration - DW ([1]; replicate 2)	Cell penetration efficiency (TAMRA fluorescence), Electrooration - DW ([1]; replicate 3)	Cell penetration efficiency (TAMRA fluorescence), Chemical (CaCl2) method - Tris buffer ([2]; replicate 1)	Cell penetration efficiency (TAMRA fluorescence), Chemical (CaCl2) method - Tris buffer ([2]; replicate 2)	Cell penetration efficiency (TAMRA fluorescence), Chemical (CaCl2) method - Tris buffer ([2]; replicate 3)	Cell penetration efficiency (TAMRA fluorescence), Chemical (CaCl2) method - DW ([2]; replicate 1)	Cell penetration efficiency (TAMRA fluorescence), Chemical (CaCl2) method - DW ([2]; replicate 2)	Cell penetration efficiency (TAMRA fluorescence), Chemical (CaCl2) method - DW ([2]; replicate 3)	Penetration efficiency (TAMRA FI) [2]	Max OD (%) (Figure 3f) ([3]; replicate 1)	Max OD (%) (Figure 3f) ([3]; replicate 2)	Max OD (%) (Figure 3f) ([3]; replicate 3)	Growth rate (%) [3]	Anti-bacterial activity [3]	Cell penetration efficiency (TAMRA fluorescence), Control ([4]; replicate 1)	Cell penetration efficiency (TAMRA fluorescence), Control ([4]; replicate 2)	further results
R9-TAT (GRRRRRRRRRPPQ; also: TAMRA label, site not given here) [CPP 14]	1652.65 A.U.	2400.94 A.U.	906.944 A.U.	871.282 A.U.	655.834 A.U.	728.231 A.U.	247.778 A.U.	278.483 A.U.	297.356 A.U.	1405.86 A.U.	216.364 A.U.	286.408 A.U.	1704.74	76.3087%	63.2803%	64.6762%	68.0884%	Safe	29.4004 A.U.	32.4749 A.U.	Cell penetration efficiency (TAMRA fluorescence), Electrooration - Tris buffer ([1]; replicate 4): 1858.43 A.U.; Cell penetration efficiency (TAMRA fluorescence), Control ([4]; replicate 3): 29.0426 A.U.
Rev(34-50) (TRQARRNRRRRWRERQR; also: TAMRA label, site not given here) [CPP 15]	1419.77 A.U.	1626.5 A.U.	1629.96 A.U.	772.285 A.U.	531.205 A.U.	564.956 A.U.	103.028 A.U.	97.4338 A.U.	68.163 A.U.	228.73 A.U.	679.736 A.U.	805.596 A.U.	1458.36	73.0516%	73.4005%	79.5657%	75.3393%	Safe	29.8568 A.U.	31.0533 A.U.	Cell penetration efficiency (TAMRA fluorescence), Electrooration - Tris buffer ([1]; replicate 4): 1157.23 A.U.; Cell penetration efficiency (TAMRA fluorescence), Control ([4]; replicate 3): 36.163 A.U.
ppTG1 (GLFKALLKLLKSLWKLLLKA; also: TAMRA label, position not given here) [CPP 16]	299.308 A.U.	307.97 A.U.	322.066 A.U.	116.793 A.U.	316.678 A.U.	302.379 A.U.	251.992 A.U.	38.28 A.U.	55.663 A.U.	201.023 A.U.	237.812 A.U.	176.507 A.U.	130.52	61.1865%	69.0965%	63.3967%	64.5599%	Safe	21.8791 A.U.	18.0245 A.U.	Cell penetration efficiency (TAMRA fluorescence), Chemical (CaCl2) method - Tris buffer ([2]; replicate 4): 85.7449 A.U.; Cell penetration efficiency (TAMRA fluorescence), Chemical (CaCl2) method - Tris buffer ([2]; replicate 5): 220.921 A.U.; Cell penetration efficiency (TAMRA fluorescence), Control ([4]; replicate 3): 15.0301 A.U.
I-SceI (No CPP): meganuclease I-SceI without CPP, control (protein, UniProt P03882 1-235, looked up) Intron-encoded endonuclease …: MKNIKKNQVMNLGPNSKLLKEYKSQLIELNIEQFEAGIGLILGDAYIRSRDEGKTYCMQFEWKNKAYMDHVCLLYDQWVLSPPHKKERVNHLGNLVITWGAQTFKHQAFNKLANLFIVNNKKTIPNNLVENYLTPMSLAYWFMDDGGKWDYNKNSTNKSIVLNTQSFTFEEVEYLVKGLRNKFQLNCYVKINKNKPIIYIDSMSYLIFYNLIKPYLIPQMMYKLPNTISSETFLK																					Plasmid removal efficiency (%) ([5]; plasmid with ColE1 origin (15–20 copies), same protocol, replicate 1): 19.3%; Plasmid removal efficiency (%) ([5]; plasmid with ColE1 origin (15–20 copies), same protocol, replicate 2): 13.3%; Plasmid removal efficiency (%) ([5]; plasmid with ColE1 origin (15–20 copies), same protocol, replicate 3): 14.8%; Plasmid removal efficiency (%) ([5]; plasmid with RSF1030 origin (>100 copies), same protocol, replicate 1): 17.57%; Plasmid removal efficiency (%) ([5]; plasmid with RSF1030 origin (>100 copies), same protocol, replicate 2): 16.88%; Plasmid removal efficiency (%) ([5]; plasmid with RSF1030 origin (>100 copies), same protocol, replicate 3): 17.79%; Plasmid removal efficiency (%) ([5]; plasmid with pSC101 origin (~5 copies), 50 μL protein (0.05 μg/μL), electroporation, Tris-HCl pH 7.5 3 h, CutSmart 2 h 37 °C, 2 mM NiCl2 selection, replicate 1): 16.6%; Plasmid removal efficiency (%) ([5]; plasmid with pSC101 origin (~5 copies), 50 μL protein (0.05 μg/μL), electroporation, Tris-HCl pH 7.5 3 h, CutSmart 2 h 37 °C, 2 mM NiCl2 selection, replicate 2): 15%; Plasmid removal efficiency (%) ([5]; plasmid with pSC101 origin (~5 copies), 50 μL protein (0.05 μg/μL), electroporation, Tris-HCl pH 7.5 3 h, CutSmart 2 h 37 °C, 2 mM NiCl2 selection, replicate 3): 15.64%
